Consider ten molecules from patent publication US20080206268A1 (RIJKSUNIVERSITEIT TE LEIDEN, published 2008).

As usually defined, the IC50 is the midpoint of a concentration-inhibition curve. Read a low IC50 as inhibition by little substance.

B1: nonameric HA-1^R peptide KECVLRDDL (peptide)
peptide: KECVLRDDL
notes: synthetic peptide; also called Peptide No. 8
B2: peptide ECVLRDDLL (peptide)
peptide: ECVLRDDLL
notes: synthetic peptide; also called Peptide No. 12; nonameric HA-1^R peptide
B3: HA-1^H/R polymorphic region peptide No. 20, LRDDLLEAR (peptide)
peptide: LRDDLLEAR
notes: synthetic peptide; also called nonameric HA-1^R peptide
B4: HA-1^H/R polymorphic region peptide No. 6, LKECVLRDD (peptide)
peptide: LKECVLRDD
notes: as for B3
B5: HA-1^H/R polymorphic region peptide No. 2, EKLKECVLR (peptide)
peptide: EKLKECVLR
notes: as for B3
B6: HA-1^H/R polymorphic region peptide No. 4, KLKECVLRD (peptide)
peptide: KLKECVLRD
notes: as for B3
B7: HA-1^H/R polymorphic region peptide No. 14, CVLRDDLLE (peptide)
peptide: CVLRDDLLE
notes: as for B3
B8: HA-1^H/R polymorphic region peptide No. 22, RDDLLEARR (peptide)
peptide: RDDLLEARR
notes: as for B3
B9: decameric HA-1^R peptide VLRDDLLEAR (peptide)
peptide: VLRDDLLEAR
notes: synthetic peptide; also called Peptide No. 18

The target in one test is HLA-A24 on HLA typed EBV-LCLs (human). The experiment in a line: cell-based competition HLA peptide binding assay, flow cytometry.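 Further: cells given mild acid treatment, then held in medium with 2% FCS and β2 microglobulin, read out as mean cell fluorescence.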
Protocol: (§1) Immediately after mild acidic treatment, the cells were washed with 12 ml Iscove's modified Dulbecco's medium (IMDM, Bio Whittaker, Belgium) containing 2% FCS and resuspended in IMDM containing 2% FCS, 1.5 μg/ml β2 microglobulin (Sigma, St. Louis, Mo., US). […] The mean fluorescence expressed by the cells was determined by a FACScalibur flow cytometer (Becton-Dickinson, St. Louis, Mo., US).
With B1, the binding result is given as “no binding (tested: 100 to 0.78 µM)”.
Still for that read-out and setting: as for B2, the entry is “no binding (tested: 100 to 0.78 µM)”; as for B3, “no binding (tested: 100 to 0.78 µM)”.
On the same count and under the same terms, in the case of B4 it was “no binding (tested: 100 to 0.78 µM)”; in that of B5, “no binding (tested: 100 to 0.78 µM)”.
Still for that read-out and setting: in the case of B6 it was “no binding (tested: 100 to 0.78 µM)”; in that of B7, “no binding (tested: 100 to 0.78 µM)”; in that of B8, “no binding (tested: 100 to 0.78 µM)”.

For a further test, the target named is HLA-A1 on HLA typed EBV-LCLs (human). Described as above.
Protocol: as §1
Turning to B1, the binding result is “no binding (tested: 100 to 0.78 µM)”.
Consider B2, for which the binding result is “no binding (tested: 100 to 0.78 µM)”.
Still for that read-out and setting: as for B3, the entry is “no binding (tested: 100 to 0.78 µM)”.
On the same count and under the same terms, in the case of B4 it was “no binding (tested: 100 to 0.78 µM)”; in that of B5, “no binding (tested: 100 to 0.78 µM)”; in that of B6, “no binding (tested: 100 to 0.78 µM)”.
Still for that read-out and setting: in the case of B7 it was “no binding (tested: 100 to 0.78 µM)”; in that of B8, “no binding (tested: 100 to 0.78 µM)”.

The next test has as its target HLA-A11 on HLA typed EBV-LCLs (human). The description is as above.
Protocol: as §1
Regarding B1, the binding result is given as “no binding (tested: 100 to 0.78 µM)”.
On the same count and under the same terms, as for B2, the entry is “no binding (tested: 100 to 0.78 µM)”; as for B3, “no binding (tested: 100 to 0.78 µM)”.
The same measure, in the same setting: in the case of B4 it was “no binding (tested: 100 to 0.78 µM)”; in that of B5, “no binding (tested: 100 to 0.78 µM)”; in that of B6, “no binding (tested: 100 to 0.78 µM)”.
On to B7, for which the binding result was “no binding (tested: 100 to 0.78 µM)”.
On the same count and under the same terms, as for B8, the entry is “no binding (tested: 100 to 0.78 µM)”.

The next test deals with HLA-B7 on HLA typed EBV-LCLs (human). The description is as above.
Protocol: as §1
B1: the binding result was “no binding (tested: 100 to 0.78 µM)”.
B2: the binding result is reported as “no binding (tested: 100 to 0.78 µM)”.
Consider B3, for which the binding result is reported as “no binding (tested: 100 to 0.78 µM)”.
Same read-out and setting: in the case of B4 it was “no binding (tested: 100 to 0.78 µM)”.
On the same count and under the same terms, in the case of B5 it was “no binding (tested: 100 to 0.78 µM)”; in that of B6, “no binding (tested: 100 to 0.78 µM)”.
The same measure, in the same setting: in the case of B7 it was “no binding (tested: 100 to 0.78 µM)”; in that of B8, “no binding (tested: 100 to 0.78 µM)”.

The next test addresses HLA-A3 on HLA typed EBV-LCLs (human). The experiment in a line: cell-based competition on acid-treated EBV-LCLs against 150 nM fluorescent reference peptide, flow cytometry.
Protocol: as §1
Take KQSSKALQR [HLA-A3 binder-positive control peptide KQSSKALQR]: the half-maximal inhibitory concentration (IC50) was determined as 9.4 µM.
On the same count and under the same terms, as for B9, the figure is 37.5 µM.

In the next test the target is HLA-B60 on HLA typed EBV-LCLs (human). The test is described as above.
Protocol: as §1
Turning to B1, the IC50 worked out at 3.9 µM.
